Reference: PMC10440358 (Biochemistry and Biophysics Reports, 2023)

B1: NΔ150-hTPH2, wild type (human tryptophan hydroxylase 2 lacking the N-terminal 150 amino acid regulatory domain) (domain or fragment)
chain: not shown
B2: NΔ150-hTPH2 A328V (domain or fragment)
chain: not shown
B3: NΔ150-hTPH2 A328E (domain or fragment)
chain: not shown
B4: Human tryptophan hydroxylase 2, full-length wild type (enzyme, UniProt Q8IWU9 1-490, looked up)
chain: MQPAMMMFSSKYWARRGFSLDSAVPEEHQLLGSSTLNKPNSGKNDDKGNKGSSKREAATESGKTAVVFSLKNEVGGLVKALRLFQEKRVNMVHIESRKSRRRSSEVEIFVDCECGKTEFNELIQLLKFQTTIVTLNPPENIWTEEEELEDVPWFPRKISELDKCSHRVLMYGSELDADHPGFKDNVYRQRRKYFVDVAMGYKYGQPIPRVEYTEEETKTWGVVFRELSKLYPTHACREYLKNFPLLTKYCGYREDNVPQLEDVSMFLKERSGFTVRPVAGYLSPRDFLAGLAYRVFHCTQYIRHGSDPLYTPEPDTCHELLGHVPLLADPKFAQFSQEIGLASLGASDEDVQKLATCYFFTIEFGLCKQEGQLRAYGAGLLSSIGELKHALSDKACVKAFDPKTTCLQECLITTFQEAYFVSESFEEAKEKMRDFAKSITRPFSVYFNPYTQSIEILKDTRSIENVVQDLRSDLNTVCDALNKMNQYLGI
B5: Human tryptophan hydroxylase 2, full-length A328V variant (rs2887147) (enzyme, UniProt Q8IWU9 1-490, looked up)
chain: MQPAMMMFSSKYWARRGFSLDSAVPEEHQLLGSSTLNKPNSGKNDDKGNKGSSKREAATESGKTAVVFSLKNEVGGLVKALRLFQEKRVNMVHIESRKSRRRSSEVEIFVDCECGKTEFNELIQLLKFQTTIVTLNPPENIWTEEEELEDVPWFPRKISELDKCSHRVLMYGSELDADHPGFKDNVYRQRRKYFVDVAMGYKYGQPIPRVEYTEEETKTWGVVFRELSKLYPTHACREYLKNFPLLTKYCGYREDNVPQLEDVSMFLKERSGFTVRPVAGYLSPRDFLAGLAYRVFHCTQYIRHGSDPLYTPEPDTCHELLGHVPLLVDPKFAQFSQEIGLASLGASDEDVQKLATCYFFTIEFGLCKQEGQLRAYGAGLLSSIGELKHALSDKACVKAFDPKTTCLQECLITTFQEAYFVSESFEEAKEKMRDFAKSITRPFSVYFNPYTQSIEILKDTRSIENVVQDLRSDLNTVCDALNKMNQYLGI

Molecular target: the molecule itself
Experiment: SEC

Row | Protein | stoichiometry N
1 | B1 | 4
2 | B2 | 4
3 | B3 | 4
4 | B4 | 4
5 | B5 | 4
